Measured values taken from PMC2930068.
Like-named read-outs stand apart in the source and are kept apart here. Square brackets hold non-standard residues; d marks the D form. Ends that are not written are not given here. pS = N[C@@H](COP(=O)(O)O)C(=O)O

Legend:
[1] = target: importin α5 (79-538) in the ITC cell (human) (UniProt P52294); experiment: ITC
[2] = target: importin α5 (79-538) in the ITC cell (human) (UniProt P52294); experiment: ITC; remark: listed apart in the source

Row | Binder | Kd [1] [µM] | dH [1] [kcal/mol] | Kd [2] [µM]
1 | KRPRSPSS (not fully specified) [unphosphorylated EBNA-1 NLS peptide (379-KRPRSPSS-386)] | 30 | 6.55 | 60
2 | KRPRSP[pS]S [phosphorylated EBNA-1 NLS peptide (379-KRPRSPpSS-386)] | – | 6.95 | –
